How the values were obtained:
Experiment in all cases: Kinase Profiling Assay
Type in all cases: biochemical
Settings in all cases: 100 μM
[1] = target: T1, EphA8(h) (Homo sapiens, UniProt P29322)
T1 sequence (P29322 28-1005): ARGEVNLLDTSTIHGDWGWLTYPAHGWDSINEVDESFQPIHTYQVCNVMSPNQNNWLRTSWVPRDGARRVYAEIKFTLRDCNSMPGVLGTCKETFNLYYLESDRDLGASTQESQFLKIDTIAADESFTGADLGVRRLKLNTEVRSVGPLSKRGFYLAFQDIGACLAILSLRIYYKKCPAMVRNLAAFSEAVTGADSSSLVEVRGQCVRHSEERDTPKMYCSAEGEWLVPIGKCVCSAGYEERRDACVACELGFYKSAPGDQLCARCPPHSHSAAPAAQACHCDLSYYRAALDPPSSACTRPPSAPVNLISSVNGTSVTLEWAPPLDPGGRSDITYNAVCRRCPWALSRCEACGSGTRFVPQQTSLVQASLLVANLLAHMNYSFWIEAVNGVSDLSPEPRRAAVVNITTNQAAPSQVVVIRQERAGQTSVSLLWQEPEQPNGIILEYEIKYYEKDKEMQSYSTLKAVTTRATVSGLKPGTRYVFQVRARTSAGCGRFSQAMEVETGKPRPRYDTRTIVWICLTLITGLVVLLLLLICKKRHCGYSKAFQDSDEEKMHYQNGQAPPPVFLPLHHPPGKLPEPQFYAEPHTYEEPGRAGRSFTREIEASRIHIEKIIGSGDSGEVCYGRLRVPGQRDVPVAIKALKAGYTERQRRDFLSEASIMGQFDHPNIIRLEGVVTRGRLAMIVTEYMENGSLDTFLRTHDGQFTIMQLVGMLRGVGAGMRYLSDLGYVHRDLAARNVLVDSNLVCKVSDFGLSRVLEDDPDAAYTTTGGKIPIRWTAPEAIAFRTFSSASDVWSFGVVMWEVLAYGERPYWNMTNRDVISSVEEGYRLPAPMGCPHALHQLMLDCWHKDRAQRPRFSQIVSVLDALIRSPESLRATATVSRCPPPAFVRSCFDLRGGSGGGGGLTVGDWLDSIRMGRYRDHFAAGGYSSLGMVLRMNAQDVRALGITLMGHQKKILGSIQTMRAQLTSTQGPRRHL

[2] = target: Flt3(D835Y)(h) (Homo sapiens, UniProt P36888, D835Y)
[3] = target: JNK3(h) (Homo sapiens, UniProt P53779)
[4] = target: Met(D1246H)(h) (Homo sapiens, UniProt P08581, D1228H)
[5] = target: Pim-3(h) (Homo sapiens, UniProt Q86V86)
[6] = target: PKBα(h) (Homo sapiens, UniProt P31749)
[7] = target: T2, TAO3(h) (Homo sapiens, UniProt Q9H2K8)
T2 sequence (Q9H2K8 1-898): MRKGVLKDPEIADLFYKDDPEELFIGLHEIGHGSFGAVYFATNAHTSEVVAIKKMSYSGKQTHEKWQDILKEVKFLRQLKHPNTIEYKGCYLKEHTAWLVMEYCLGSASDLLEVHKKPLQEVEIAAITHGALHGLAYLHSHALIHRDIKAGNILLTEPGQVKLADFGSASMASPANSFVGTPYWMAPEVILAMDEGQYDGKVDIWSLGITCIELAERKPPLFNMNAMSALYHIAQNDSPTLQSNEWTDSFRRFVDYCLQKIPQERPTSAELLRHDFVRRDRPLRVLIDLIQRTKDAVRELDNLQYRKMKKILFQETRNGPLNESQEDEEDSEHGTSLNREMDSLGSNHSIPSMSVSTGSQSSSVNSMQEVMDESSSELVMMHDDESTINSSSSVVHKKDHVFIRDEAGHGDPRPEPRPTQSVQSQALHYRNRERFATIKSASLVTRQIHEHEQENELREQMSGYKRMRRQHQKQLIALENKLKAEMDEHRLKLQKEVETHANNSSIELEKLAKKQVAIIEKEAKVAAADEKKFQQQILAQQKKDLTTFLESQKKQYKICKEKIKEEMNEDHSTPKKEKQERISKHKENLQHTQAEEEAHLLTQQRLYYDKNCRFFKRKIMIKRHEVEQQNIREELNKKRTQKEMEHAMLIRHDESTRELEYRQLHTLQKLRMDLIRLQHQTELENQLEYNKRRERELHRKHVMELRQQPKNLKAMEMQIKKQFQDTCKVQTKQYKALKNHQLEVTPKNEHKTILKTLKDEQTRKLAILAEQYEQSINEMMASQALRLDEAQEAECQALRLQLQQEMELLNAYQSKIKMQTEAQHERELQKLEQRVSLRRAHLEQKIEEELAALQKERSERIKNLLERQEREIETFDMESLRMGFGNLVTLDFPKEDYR

[8] = target: TrkA(h) (Homo sapiens, UniProt P04629)
[9] = target: T3, Txk(h) (Homo sapiens, UniProt P42681)
T3 sequence (P42681 1-527): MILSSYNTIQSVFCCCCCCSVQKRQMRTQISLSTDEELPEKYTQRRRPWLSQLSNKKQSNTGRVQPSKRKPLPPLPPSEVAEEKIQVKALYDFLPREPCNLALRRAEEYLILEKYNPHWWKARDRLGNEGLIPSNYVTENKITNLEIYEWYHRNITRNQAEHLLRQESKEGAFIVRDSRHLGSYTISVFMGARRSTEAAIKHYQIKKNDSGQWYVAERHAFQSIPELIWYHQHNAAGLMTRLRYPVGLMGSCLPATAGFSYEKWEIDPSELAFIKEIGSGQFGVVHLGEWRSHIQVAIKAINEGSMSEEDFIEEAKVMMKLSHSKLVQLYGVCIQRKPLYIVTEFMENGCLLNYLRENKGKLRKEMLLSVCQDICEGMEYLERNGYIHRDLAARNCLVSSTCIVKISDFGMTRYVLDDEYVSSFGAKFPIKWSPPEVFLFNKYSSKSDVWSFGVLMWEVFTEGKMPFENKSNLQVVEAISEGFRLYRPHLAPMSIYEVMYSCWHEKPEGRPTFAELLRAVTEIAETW

PKBα(h), sequence (P31749 whole entry): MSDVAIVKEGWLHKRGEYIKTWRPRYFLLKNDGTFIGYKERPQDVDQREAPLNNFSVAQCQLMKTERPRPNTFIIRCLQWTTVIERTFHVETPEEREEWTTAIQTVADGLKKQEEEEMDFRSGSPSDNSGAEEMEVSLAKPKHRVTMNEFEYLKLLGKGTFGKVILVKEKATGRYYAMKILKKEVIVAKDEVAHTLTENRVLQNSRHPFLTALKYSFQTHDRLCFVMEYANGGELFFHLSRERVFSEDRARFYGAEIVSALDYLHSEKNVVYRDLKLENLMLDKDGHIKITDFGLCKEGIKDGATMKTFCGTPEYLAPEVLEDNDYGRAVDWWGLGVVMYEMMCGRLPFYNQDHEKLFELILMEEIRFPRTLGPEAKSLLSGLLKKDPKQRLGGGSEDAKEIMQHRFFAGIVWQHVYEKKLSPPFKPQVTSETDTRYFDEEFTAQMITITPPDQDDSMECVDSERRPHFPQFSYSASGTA
JNK3(h), sequence (P53779 whole entry): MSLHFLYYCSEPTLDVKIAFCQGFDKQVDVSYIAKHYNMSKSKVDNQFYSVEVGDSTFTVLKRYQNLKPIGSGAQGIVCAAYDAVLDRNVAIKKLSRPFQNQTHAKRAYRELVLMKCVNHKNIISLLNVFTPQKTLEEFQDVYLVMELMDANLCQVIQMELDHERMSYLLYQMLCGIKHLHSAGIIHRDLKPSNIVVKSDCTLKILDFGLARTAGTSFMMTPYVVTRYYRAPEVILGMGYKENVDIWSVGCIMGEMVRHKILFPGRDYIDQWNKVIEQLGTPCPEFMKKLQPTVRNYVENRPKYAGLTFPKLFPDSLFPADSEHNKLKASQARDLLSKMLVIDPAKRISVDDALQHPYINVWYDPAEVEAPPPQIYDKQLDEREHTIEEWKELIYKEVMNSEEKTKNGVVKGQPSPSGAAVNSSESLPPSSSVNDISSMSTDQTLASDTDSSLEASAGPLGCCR
TrkA(h), sequence (P04629 33-796): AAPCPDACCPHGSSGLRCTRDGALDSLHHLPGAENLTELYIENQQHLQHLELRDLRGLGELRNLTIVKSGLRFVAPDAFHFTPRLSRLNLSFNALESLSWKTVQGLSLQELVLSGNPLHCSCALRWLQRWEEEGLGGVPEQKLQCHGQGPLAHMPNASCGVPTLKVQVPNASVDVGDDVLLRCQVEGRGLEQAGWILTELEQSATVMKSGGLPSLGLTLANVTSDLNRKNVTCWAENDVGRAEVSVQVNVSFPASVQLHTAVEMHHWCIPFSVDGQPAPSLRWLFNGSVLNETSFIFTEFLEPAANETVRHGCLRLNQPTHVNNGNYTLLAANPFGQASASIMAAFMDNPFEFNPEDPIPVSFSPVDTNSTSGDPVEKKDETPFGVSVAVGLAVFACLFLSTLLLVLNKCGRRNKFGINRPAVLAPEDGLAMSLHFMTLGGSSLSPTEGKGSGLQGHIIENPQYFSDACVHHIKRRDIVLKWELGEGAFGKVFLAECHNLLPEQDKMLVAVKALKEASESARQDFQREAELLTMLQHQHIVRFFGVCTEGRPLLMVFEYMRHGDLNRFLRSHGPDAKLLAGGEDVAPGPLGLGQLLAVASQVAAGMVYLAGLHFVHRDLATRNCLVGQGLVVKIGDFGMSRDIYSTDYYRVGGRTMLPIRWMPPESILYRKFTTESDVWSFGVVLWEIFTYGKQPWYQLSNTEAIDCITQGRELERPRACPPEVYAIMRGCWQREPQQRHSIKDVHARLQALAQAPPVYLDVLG

Row | Sequence | % activity [1] [%] | % activity [2] [%] | % activity [3] [%] | % activity [4] [%] | % activity [5] [%] | % activity [6] [%] | % activity [7] [%] | % activity [8] [%] | % activity [9] [%]
1 | FAKLAARLYRKALARQLGVAA [MMI-0300] | 93 | 80 | 89 | 125 | 80 | 57 | 77 | 25 | 48
2 | HRRIKAWLKKIKALARQLGVAA [MMI-0500] | 337 | 65 | 171 | 150 | 37 | 30 | 12 | 24 | 10
3 | KAFAKLAARLYRKALARQLGVAA [MMI-0400] | 146 | 71 | 70 | 68 | 80 | 67 | 67 | 17 | 37
4 | YARAAARQARAKALNRQLGVA [MMI-0200] | 133 | – | 90 | 139 | 94 | 110 | – | – | 98
